Literature values as cited in patent publication US20110217294A1, “COMBINATION OF HGF INHIBITOR AND HEDGEHOG INHIBITOR TO TREAT CANCER” (priority 2009, published 2011).

Columns and labels:
[1] = biological target: cMet receptor (Homo sapiens, UniProt P08581); conditions: high affinity binding site
[2] = biological target: heparin sulfate proteoglycans (HSPG); conditions: low affinity binding site

Sequence of cMet receptor (P08581 25-1390): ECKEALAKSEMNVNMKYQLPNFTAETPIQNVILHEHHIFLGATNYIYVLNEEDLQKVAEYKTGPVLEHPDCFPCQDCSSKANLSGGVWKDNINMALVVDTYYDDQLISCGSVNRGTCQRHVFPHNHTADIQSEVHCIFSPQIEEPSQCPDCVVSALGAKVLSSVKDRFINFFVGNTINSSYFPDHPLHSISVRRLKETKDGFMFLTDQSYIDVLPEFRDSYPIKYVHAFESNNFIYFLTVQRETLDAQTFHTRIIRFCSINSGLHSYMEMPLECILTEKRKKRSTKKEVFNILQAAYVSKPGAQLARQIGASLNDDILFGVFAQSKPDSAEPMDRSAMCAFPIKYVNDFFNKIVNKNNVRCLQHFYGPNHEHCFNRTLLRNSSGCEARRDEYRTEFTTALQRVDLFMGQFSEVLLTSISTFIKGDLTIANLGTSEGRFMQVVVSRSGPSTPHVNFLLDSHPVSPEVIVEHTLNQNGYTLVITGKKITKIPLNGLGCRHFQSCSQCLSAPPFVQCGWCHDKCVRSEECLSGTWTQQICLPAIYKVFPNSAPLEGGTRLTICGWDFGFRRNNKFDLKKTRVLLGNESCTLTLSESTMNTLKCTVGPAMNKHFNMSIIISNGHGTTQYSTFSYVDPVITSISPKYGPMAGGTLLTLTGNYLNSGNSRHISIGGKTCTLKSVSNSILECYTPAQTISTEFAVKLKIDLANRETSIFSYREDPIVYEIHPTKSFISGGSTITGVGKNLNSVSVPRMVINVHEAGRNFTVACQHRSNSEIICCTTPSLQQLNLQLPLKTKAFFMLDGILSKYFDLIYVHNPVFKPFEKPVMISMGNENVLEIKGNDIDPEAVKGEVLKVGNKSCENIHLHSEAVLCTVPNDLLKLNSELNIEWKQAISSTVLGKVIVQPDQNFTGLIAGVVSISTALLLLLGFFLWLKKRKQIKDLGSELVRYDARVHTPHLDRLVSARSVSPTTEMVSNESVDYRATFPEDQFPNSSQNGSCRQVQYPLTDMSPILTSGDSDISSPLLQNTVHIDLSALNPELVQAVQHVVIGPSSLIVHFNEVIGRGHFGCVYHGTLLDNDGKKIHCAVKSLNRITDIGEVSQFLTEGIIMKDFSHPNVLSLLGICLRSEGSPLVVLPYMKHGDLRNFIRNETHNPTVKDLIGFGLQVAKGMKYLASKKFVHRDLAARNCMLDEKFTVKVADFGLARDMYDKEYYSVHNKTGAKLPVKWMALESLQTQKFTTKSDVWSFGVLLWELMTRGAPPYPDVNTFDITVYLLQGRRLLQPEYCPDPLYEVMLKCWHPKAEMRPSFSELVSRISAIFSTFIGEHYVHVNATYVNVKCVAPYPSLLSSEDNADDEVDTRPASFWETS

Kd [1]: 200 pM
Kd [2]: 1000 pM
Substance: HGF: Human Hepatocyte Growth Factor, 102 kDa heterodimeric polypeptide
